For the test, the target named is T1, SARS-COV-2 RBD (SARS-COV-2, UniProt P0DTC2 319-539).
T1 construct: also called WT RBD
The test is described as follows: ELISA, RBD coated. Background: An ELISA detects its analyte on a solid surface through an enzyme-linked reagent.

Substitutions are numbered along the chain they refer to.

B1: C868 (antibody, V domains shown)
VH: QVQLQESGPRLVKPSETLSLTCIVSGGSVSSNNFYWSWIRQPPGKRLEWIGYFYNSGSSKYNPSLKSRVTISGDTSKNQFSLKLSSVTAADTAVYYCARETFFYDRTGHYKSDGFDVWGQGTMVTVSS
VL: DIQMTQSPSTLSASVGDRVTISCRASQNISSWLAWYQQEAGKAPKLLIYKASSLESGVPSRFSGSGSGTEFTLTISSLQPGDFATYYCQQYNIYSYTFGQGTKLEIK
notes: IgG; V domains only
Consider B1, for which the midpoint of the response, the EC50, lay at 3.39 ng/mL.

B2: C867 (antibody, V domains shown)
VH: QVQLQESGPGLVKSSETLSLTCTVSSGSVRSGGYYWSWIRHHPGKGLEWIGYIFYTGITYYNPSLKSRVIVSVDPSKNQFSLNLTSVTAADTAVYYCASTPYTNGGAFHIWGQGTMVTVSS
VL: QSALTQPPSASGSPGQSVTISCTGTSSDVGGHNYVSWYQQFPGKAPKLIIYDVNKRPSGVPDRFSGSKSANTASLTVSGLQAEDEADYHCSSYAGSNNWVFGGGTKLTVL
notes: IgG; V domains only
B2 registered an EC50 of 2.71 ng/mL.

B3: C885 (antibody, V domains shown)
VH: QVQLQESGPGLVKPSQTLSLTCAVSGDSIRSGGYYWSWVRQHPGRGLEWIGYIYFSGTTYYNPSLKSRVTISVDTSEKQFSLKLTSVTDADTAVYFCARVKGWLRGYFDYWGQGALVTVSS
VL: NFMLTQSHSVSESPGKTVTISCTGSSGNIVNNYVQWYQQRPGSAPIIVIYEDTQRPSGVPDRFSGSIDTSSNSASLTISGLKTEDEADYYCQSYDSGSHVVFGGGTKLTV
notes: IgG; V domains only
Molecule B3 displayed an EC50 of 7.45 ng/mL.

B4: C879 (antibody, V domains shown)
VH: QVQLQESGPGLVKPSQTLSLTCGVSGDSISSGGHFWSWVRQHPGTGLEWIAYSPFSGTTYYNPSLKSRVTLSVDTSKNQFFLSLTSVTDADTAVYFCARVKGWLRGYFDHWGQGVLVTVSS
VL: B3 VL with S7P, G24A, T53A, D95E, S96I, G97D, K107R
notes: IgG; V domains only
In turn, B4 yielded an EC50 of 4.25 ng/mL.

B5: C884 (antibody, V domains shown)
VH: QVQLQQWGAGLLKPSETLSLTCVVYGGSFSAYYWSWIRQPPGKGLEWIGEINHSGSTNYKSSLQSRVTISVDTSKNQFSLKLSSVTAADTAVYYCARETGTYGTFDHWGQGTLVTVSS
VL: EIVLTQSPGTLSLSPGERATLSCRASQSVSSTYLAWYQQKPGQAPRLLIYGASSRATGIPDRFSGSGSGTDFTLTISRLEPEDFAVYYCQQYAFSVWTFGQGTKVEI
notes: IgG; V domains only
On to B5, for which the concentration for a half-maximal effect (EC50) stood at 4.22 ng/mL. The EC50 values of the last two molecules are within 1.5-fold of each other.

B6: C871 (antibody, V domains shown)
VH: EVQLVESGGGLIQTGGSLKLSCAASGFIVTNNYMSWVRQAPGKGLEWVSVIYSGGTTYYADSVKGRFTISRDISKNTLYLQMNSLKAEDTAVYYCAREGDVEGISDSWSGYSRDRYYFDHWGQGTLVTVSS
VL: QSALTQPASVSGSPGQSITISCTGTSSDVGGYNYVSWYQQHPGKAPKLMIYDVSNRPPTISNRFSGSKSGNTASLIISGLQPEDEADYYCSSFTSNNTRVFGTGTKVTVL
notes: IgG; V domains only
As to B6, the concentration giving a half-maximal response (EC50) amounted to 1.52 ng/mL.

B7: C866 (antibody, V domains shown)
VH: EVQLVESGGGLVQPGRSLRLSCVASGFEFEDYGMHWVRQVPGKGLEWVSGISWNSASVGYADSVRGRFTISRDNAKNSLYLQMNSLRAEDTALYYCGKQINEWSHFLDYWGQGTLVTVSS
VL: DIQLTQSPSSVSASVGDRVTITCRASQGISNWLAWYQKKPGKAPKLLIYATSSLQSGVPSRFSGSGSETDFTLTIRSLQPEDFATYYCQQANSYPLTFGQGTKLEIK
notes: IgG; V domains only
B7 registered an EC50 of 2 ng/mL.

B8: C888 (antibody, V domains shown)
VH: EVQLVESGGGLVQPGGSLRLSCAASGFTVSSNYMSWVRQAPGKGLEWVSVIYSGGSAYYADSVKGRFTISRDNSKNTLYLQMNSLRAEDTAVYYCARDLRDQDGYSYGAFDYWGQGTLVTVSS
VL: QSALTQPASVSGSPGQSITISCTGTSSDVGGYNYVSWYQQHPGKAPKLMIYDVSNRPSGVSNRFSGSKSGNTASLTISGLQAEDEADYYCSSYTSSSSWVFGGGTKLTVL
notes: IgG; V domains only
Molecule B8 had an EC50 of 1.44 ng/mL.

B9: C872 (antibody, V domains shown)
VH: EVQLVESGGGLIQPGGSLRLSCAASGFIVSNNYISWVRQAPGKGLEWVSVIYSGGTTYYADSVKGRFSISRDTSKNTVYLQINNLRAEDTAVYYCAREGDVDGNYGFWSGYSRDRYYFDYWGQGTLVTVSS
VL: QSALTQPASVSGSPGQSITISCTGTSSDVGAYNYVAWYQQHPGKAPKLMVYDVSKRPSGVSNRFSGSKSGNTASLTISGLQTEDEGDYYCCSYTTNTTRVFGTGTMLTVL
notes: IgG; V domains only
Consider B9, for which the EC50 is 2.19 ng/mL.

B10: C875 (antibody, V domains shown)
VH: QVQLVQSGAEVKQPGASVKISCKASGYIFTTYFMHWVRQAPGQGLEWLGIIDPTISGASLAQKFQGRVTMTSDTSTSTVYMEMRSLRSDDTALYFCARASTSTSSWSEALSLGSWGQGTLVTVSS
VL: QSVLTQPPSVSGAPGQGVSISCTGSSSNVGAGYGVHWYQQLPGTTPKLLIYDNNSRPAGVPDRFSGSKSGTSASLAIAGLQPEDEADYYCQSWDNGLSGSGVVFGGGTKVTVL
notes: IgG; V domains only
Take B10: the concentration giving a half-maximal response (EC50) came out at 3.5 ng/mL.

B11: C873 (antibody, V domains shown)
VH: QVQLVQSGPEVKKPGASVKVSCKASGYIFTDYSIHWVRQAPGQGLEWMGWINPNSGGGNSAQIFKGRATMARDTSITTVYMDLSGLRSDDTAVYYCARGPLFHKVVYESSSGFHDGLDFWGQGTMVTVSS
VL: QSALTQPASVSGSPGQSVTISCTGTSSDVGGYNFLSWYQQHPGKAPKLLLYEVINRPSGVSDRFSGSKSGNTASLTISGLQAEDEADYYCNSYTSNFTWVFGGGTHLTV
notes: IgG; V domains only
On to B11, for which the EC50 amounted to 4.05 ng/mL.

B12: C877 (antibody, V domains shown)
VH: EVQLVESGGGLIPPGGSLRLSCAASGIIVSRNYMSWVRQTPGKGLEWVSVMYAGGTKEYADSVKGRFIISRDDSNNTLYLQMNSLRAEDTAVYYCARDLIVLGVDVWGQGTTVTVSS
VL: DIQLTQSPSFLSASVGDRVTITCRASQGISNYLAWYQQKPGKAPKLLIYAASTLQSGVPSRFSGSGSGTEFTLTISSLQPEDFATYYCQLLNSYPMCSFGQGTKLEIK
notes: IgG; V domains only
B12 registered an EC50 of 2.53 ng/mL.

B13: C870 (antibody, V domains shown)
VH: EVQLVESGGGLVQPGKSLRLSCAGSGFAFSSYHMNWVRQAPGKGLEWVAYISSGSSTIHYADSVKGRFTISRDNAKNSFYLQMNSLRAEDTALYYCARAIVGTKGYMDVWGKGTTVTVSS
VL: QSALTQPASVSGSPGQSVTISCTGTRSDVGSYDLVSWYQLHADKAPKLIIYEVTSRPSGISTRFSGSKSGNTASLTISGLQAEDEADYYCCSYAGTTWLFGGGTRLTVL
notes: IgG; V domains only
B13 registered a half-maximal effective concentration (EC50) of 2.17 ng/mL.

B14: C880 (antibody, V domains shown)
VH: QVQLQQWGAGLLKPSETLSLTCAVYGGSFSDYYWSWIRQPPGKGLEWIGENNHSGKTNYNPSLENRVTISVDTSKNQFSLKLTSVTAADTAVYYCARESGSYGTFDYWGQGTLVTVSS
VL: EIVLTQSPGTLSLSPGERATLSCRASQSVSSAYLAWYQQKPGQAPRLLIYGASSRATGIPDRFSGSGSGTDFTLTISRLEPEDFAVYFCQQYAYTIWTFGQGTKVEIK
notes: IgG; V domains only
Turning to B14, the concentration for a half-maximal effect (EC50) stood at 2.2 ng/mL.

B15: C894 (antibody, V domains shown)
VH: EVQLVQSGAEVKKPGESLRISCKGSGYSFTGYWISWVRQMPGKGLEWMGRIDPSDSYTNYSPSFEGHVTFSADTALSTAYLQWSSLQASDTAIYFCGRIAPPGRGSYYPTQNYMDVWGKGTTVTVSS
VL: EIVLTQSPGTLSLSPGERATLSCTADQSVPNSYLAWYQHKPGQAPRLLIYGASSRATGIPDRFSGSGSGIDFTLTISRLEPEDFAVYYCQQYGSLLLTFGGGTKVEIK
notes: IgG; V domains only
Take B15: the EC50 was 16.8 ng/mL.

B16: C887 (antibody, V domains shown)
VH: EVQLVESGGDLVQPGGSLRLSCAASGFTFTTYSMSWVRQAPGKGLEWISYINSGSANIHYADSVKGRFTVSRDNAKNSLYLQMNSLRDEDTAVYYCARGDCLSSSCYSLDYWGQGALVTVSS
VL: DIQMTQSPSSLSASVGDRVTITCRASQSITSYLSWYLQKPGEAPKLLIYAASILQSGVPSRFGGNGSGTDFTLTISSLQPEDFATFYCQQTYRSPLTFGGGTKVEIK
notes: IgG; V domains only
B16: the EC50 was 3.2 ng/mL. This EC50 lies about 5.2-fold lower than the previous one.

B17: C886 (antibody, V domains shown)
VH: B16 VH with T28S, F29V, Y32N, S33A, S35A, S53I, H59Q, V70I, L102T
VL: DIQMTQSPSSLSASVGDRVSITCRASQTINTHLSWYLQKPGEAPRLLVYAASTLHSGVPSRFSGSGSGTDFTLTISSLQPEDFATFYCQQTYRFPLTFGGGTKVEIK
notes: IgG; V domains only
In the case of B17, the midpoint of the response, the EC50, lay at 2.48 ng/mL.

B18: C889 (antibody, V domains shown)
VH: EVQLVESGGGLVQPGGSLRLSCAVSGFTVSSNYMTWVRQAPGKGLEWVSLIYSGTSAFYADSVKGRFTISRDNSKNTLYLQMSSLRVNDTAIYYCARDLRKDDGYSYGAFDYWGQGTLVTVSS
VL: QSALTQPASVSGSPGQSITISCSGTSSDVGAHNYVSWYQQYPGKAPKLMIFDVTDRPSGVSNRFSGSKSGNTASLTISGLQAEDEADYYCTSYTTNRSWVFGGGTKVTVL
notes: IgG; V domains only
Consider B18, for which the EC50 stood at 0.8 ng/mL.

B19: C881 (antibody, V domains shown)
VH: EVQLVESGGGLIQPGGSLRLSCAVSGVAVSTNYMSWVRQAPGQGLEWVSTIYSGDTTYYSDSVKGRFTISRDNSKNTFYLQMNSLRVPDTAVYYCARLGGVFNGFNGSFDYWGQGTLVTVS
VL: QSALTQPASVSGSPGQSITISCIGTSSDFENYNLVSWYQQHPGKAPKVMIYEDTKRPSGVSNRFSGSKSANTASLTISGLQAEDEAEYYCCSYAGASTWVFGGGTRVTVV
notes: IgG; V domains only
B19 displayed an EC50 of 1.88 ng/mL.

B20: C869 (antibody, V domains shown)
VH: QVQLVESGGGVVQPGTSLRLSCAASGFTFSSFGMNWVRQAPGKGLEWVAVIFFDGSKTYYADSVKGRFTISRDNSKNTLYLQMNSLRTEDTAVYYCAKGQLRLGEFDDYWGQGTLVTVSS
VL: DIQMTQSPSSLSASVGDRVTITCRASQDIRDDLNWYQHKPGKAPKLLIYTASSLQSGVPSRFSGSGSGTDFTLTISRLQPEDFASYYCLQDHNYPLTFGQGTKLEIK
notes: IgG; V domains only
B20 had a concentration for a half-maximal effect (EC50) of 3.14 ng/mL.

B21: C862 (antibody, V domains shown)
VH: QVQLQESGPGLVKPSQTLSLTCTVSGASISSSEHYWSWIRQPPGKGLEWIGYISYSGGTYQNPSLQSRMTLSMDASKNQFSLKLSSVTAADTAVYFCARLNTMIVMINGVFDVWGQGTMVTVSS
VL: DIQMTQSPSSLSAFVGDRVTITCQASQDINKYVNWYQQKPGKAPKLLIYDASNLQTGVPSRFSGSGSGTHFTFTISSLQPEDFATYYCQEYDNLFSISFGQGTRLEIK
notes: IgG; V domains only
Regarding B21, the EC50 was found to be 2.14 ng/mL.

B22: C882 (antibody, V domains shown)
VH: QVQLVESGGGVVQPGRSLRLSCAASGFTFIRYNMHWVRQAPGKGLEWVAVIWYDGSNKYYADSVKGRFTISRDNSKNTLYLQMNSLRAEDTAVYYCARDPMIVVVEMDYWGQGTLVTVSS
VL: DVVMTQSPLSLPVTLGQPASISCNSSQSLVHTDGNTYLNWFQQRPGQSPRRLIYKVSNRDSGVPDRFSGSGSDTDFTLQISRVEADDVGVYYCMQGSHWPYTFGQGTKLEIK
notes: IgG; V domains only
B22: the EC50 was determined as 2.9 ng/mL.

What is called EC50 is the concentration that produces a half-maximal response. Read a high EC50 as a less potent agent.

The values above are taken from patent US20240218057A1 (ROCKEFELLER UNIVERSITY, published 2024).
